This data set has as its target T1, BMC10 (uncultured bacterium (metagenome)).
T1 chain: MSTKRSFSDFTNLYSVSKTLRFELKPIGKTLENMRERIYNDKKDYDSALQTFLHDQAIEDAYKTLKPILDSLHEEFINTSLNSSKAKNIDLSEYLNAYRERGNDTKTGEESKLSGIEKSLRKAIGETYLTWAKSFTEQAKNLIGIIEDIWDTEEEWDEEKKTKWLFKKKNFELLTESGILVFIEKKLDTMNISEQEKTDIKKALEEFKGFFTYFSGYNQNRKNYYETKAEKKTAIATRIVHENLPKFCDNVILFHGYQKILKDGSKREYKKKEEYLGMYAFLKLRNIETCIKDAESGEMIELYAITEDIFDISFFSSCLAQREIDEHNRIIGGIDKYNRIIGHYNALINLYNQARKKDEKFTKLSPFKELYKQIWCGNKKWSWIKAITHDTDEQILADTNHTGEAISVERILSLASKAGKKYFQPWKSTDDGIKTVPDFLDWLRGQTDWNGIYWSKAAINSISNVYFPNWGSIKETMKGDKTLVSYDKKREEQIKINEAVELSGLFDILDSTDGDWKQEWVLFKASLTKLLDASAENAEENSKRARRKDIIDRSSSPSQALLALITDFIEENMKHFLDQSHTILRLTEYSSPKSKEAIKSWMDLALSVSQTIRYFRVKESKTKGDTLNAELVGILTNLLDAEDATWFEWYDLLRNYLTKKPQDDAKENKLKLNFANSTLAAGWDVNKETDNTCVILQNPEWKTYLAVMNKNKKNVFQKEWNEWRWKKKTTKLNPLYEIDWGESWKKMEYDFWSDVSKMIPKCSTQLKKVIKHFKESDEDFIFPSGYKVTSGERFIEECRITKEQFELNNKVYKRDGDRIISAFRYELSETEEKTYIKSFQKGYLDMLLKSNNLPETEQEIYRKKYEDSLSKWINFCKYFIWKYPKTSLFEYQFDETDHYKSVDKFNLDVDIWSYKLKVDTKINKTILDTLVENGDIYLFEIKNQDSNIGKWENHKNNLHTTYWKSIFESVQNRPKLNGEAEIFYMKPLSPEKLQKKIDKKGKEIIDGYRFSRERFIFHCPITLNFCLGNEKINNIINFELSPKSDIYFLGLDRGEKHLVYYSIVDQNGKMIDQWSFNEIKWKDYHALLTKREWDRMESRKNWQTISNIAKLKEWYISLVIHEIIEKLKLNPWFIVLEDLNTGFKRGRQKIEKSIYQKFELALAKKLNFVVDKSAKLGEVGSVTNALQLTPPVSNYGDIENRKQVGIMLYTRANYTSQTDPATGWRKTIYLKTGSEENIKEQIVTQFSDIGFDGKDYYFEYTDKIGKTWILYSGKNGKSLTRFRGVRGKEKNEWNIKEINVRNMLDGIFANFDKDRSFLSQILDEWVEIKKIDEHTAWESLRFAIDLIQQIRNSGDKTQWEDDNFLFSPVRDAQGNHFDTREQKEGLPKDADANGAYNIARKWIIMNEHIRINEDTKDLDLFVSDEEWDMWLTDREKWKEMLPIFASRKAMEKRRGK
In words: cell_activity; PAM not stated; E. coli depletion, 30 C. Here is the method: Overnight grown pre-cultures were diluted into fresh 60 ml LB-Kanamycin (25 μg/ml) (Example 4) or LB-Kanamycin (25μg/ml)/Nourseothricin (50 μg/ml) medium (Example 5) to obtain an optical density at 600 nm (OD600) of 0.06. The inoculated medium was incubated at 30° C. on a horizontal shaker at 250 rpm until the culture reached an optical density at OD600 of 0.2. For induced BMC (NN) nuclease expression, 600 μl 20% L-(+)-arabinose (w/v) was added to the culture at a final concentration of 0.2% (v/v). The cultivation was continued until the culture reached an optical density at OD600 of 0.5. Subsequently 50 ml culture was transferred into one 50 ml conical tube and harvested by centrifugation at 4° C. for 5 min and 4000×g. Pelleted cells were resuspended in 50 ml ultrapure water (ice-cold) and centrifuged at 4° C. for 5 min and 4000×g.
This washing procedure was repeated twice. Washed cells were resuspended in 25 ml 10% (w/w) glycerin and re-centrifuged at 4° C. for 5 min and 4000×g. The pelleted cells were resuspended in 5 ml 10% (w/w) glycerin. After the final centrifugation step at 4° C. for 5 min and 4000×g, the cells were resuspended in 125 μl 10% (w/w) glycerin. Aliquots of 25 μl competent cells were stored at −80° C. until use. For the transformation procedure, aliquots of competent cells were thawed on ice and 50-100 ng plasmid DNA (CRISPR/gRNA-Ec) was added. Prepared cells were electroporated at 1800 V, 25 μF and 200 Ω in 1 mm gap size electroporation cuvettes, using the Bio-Rad Gene Pulser Xcell Electroporation System. Subsequently, 975 μL of NEB® 10-beta/Stable Outgrowth Medium was added immediately after the pulse to the transformed cells. Regeneration was done at 30° C. on a horizontal shaker at 250 rpm. Finally, 25-100 μl of the cell suspension was plated onto selective M9-Glucose agar plates supplemented with Kanamycin (25 μg/ml)/Ampicillin (100 μg/ml) (Example 4) or Kanamycin (25 μg/ml)/Ampicillin (100 μg/ml)/Nourseothrin (50 μg/ml) (Example 5). Growth of transformed E. coli cells on selective agar plates was screened for 48 h at 30° C.
As described above, each of the BMC01, BMC02, BMC03, BMC04, BMC05, BMC07, BMC08, BMC09, BMC10, BMC11, BMC12, BMC13, BMC14, or BMC15 nucleases was co-transformed into E. coli with a gRNA targeting the E. coli malQ gene to visualize a) the activity and b) the DNA targeting efficiency of the BMC nucleases.

B1: malQ gRNA (BMC stem-loop + 24 nt spacer) ; malQ protospacer (ssRNA ; dsDNA)
RNA: GAUUUCUACUAUUGUAGAUGUGGCGGUACGUUGAUGCAUCGCG
DNA 1: GTGGCGGTACGTTGATGCATCGCG
DNA 2: CGCGATGCATCAACGTACCGCCAC
Molecule B1 came in with an activity greater than 99.9 % colony reduction.

Source of the values: patent publication US20250277199, “NOVEL CRISPR-CAS NUCLEASES FROM METAGENOMES” (Brain Biotech AG, published 2025).
